Changes are numbered by the printed parent chain. Names and notes keep the numbering of the source.
B1: Fab VH5-51_IGHD5-18*01>3_IGHJ4*01 G100K/G104T G24T/S28R/G35V & V3-4_IGLJ1*01 V91L/S96P (Fab, V domains shown)
VH: EVQLVQSGAEVKKPGESLKISCKTSGYRFTSYWIVWVRQMPGKGLEWMGIIYPGDSDTRYSPSFQGQVTISADKSISTAYLQWSSLKASDTAMYYCARRKYSYTYDYFDYWGQGTLVTVSS
VL: QTVVTQEPSFSVSPGGTVTLTCGLSSGSVSTSYYPSWYQQTPGQAPRTLIYSTNTRSSGVPDRFSGSILGNKAALTITGAQADDESDYYCLLYMGPGISYVFGTGTKVTVL
notes: Fab expressed in E. coli; heavy chain vector adds CH1 with His6 and Flag tags, light chain vector adds lambda CL; Template of the S52, T53 and S57 light chain mutants; also called H:KT TRV & L:LP
B2: Fab VH5-51_IGHD5-18*01>3_IGHJ4*01 G100K/G104T G24T/S28R/G35V & V3-4_IGLJ1*01 V91L/S96P S52F (Fab, V domains shown)
VH: B1 VH
VL: B1 VL with S52F
notes: Fab expressed in E. coli; heavy chain vector adds CH1 with His6 and Flag tags, light chain vector adds lambda CL; also called H:KT TRV & L:LP S52F
B3: Fab VH5-51_IGHD5-18*01>3_IGHJ4*01 G100K/G104T G24T/S28R/G35V & V3-4_IGLJ1*01 V91L/S96P S52M (Fab, V domains shown)
VH: B1 VH
VL: B1 VL with S52M
notes: Fab expressed in E. coli; heavy chain vector adds CH1 with His6 and Flag tags, light chain vector adds lambda CL; also called H:KT TRV & L:LP S52M
B4: Fab VH5-51_IGHD5-18*01>3_IGHJ4*01 G100K/G104T G24T/S28R/G35V & V3-4_IGLJ1*01 V91L/S96P S52D (Fab, V domains shown)
VH: B1 VH
VL: B1 VL with S52D
notes: Fab expressed in E. coli; heavy chain vector adds CH1 with His6 and Flag tags, light chain vector adds lambda CL; also called H:KT TRV & L:LP S52D
B5: Fab VH5-51_IGHD5-18*01>3_IGHJ4*01 G100K/G104T G24T/S28R/G35V & V3-4_IGLJ1*01 V91L/S96P S52W (Fab, V domains shown)
VH: B1 VH
VL: B1 VL with S52W
notes: Fab expressed in E. coli; heavy chain vector adds CH1 with His6 and Flag tags, light chain vector adds lambda CL; also called H:KT TRV & L:LP S52W
B6: Fab VH5-51_IGHD5-18*01>3_IGHJ4*01 G100K/G104T G24T/S28R/G35V & V3-4_IGLJ1*01 V91L/S96P S52E (Fab, V domains shown)
VH: B1 VH
VL: B1 VL with S52E
notes: Fab expressed in E. coli; heavy chain vector adds CH1 with His6 and Flag tags, light chain vector adds lambda CL; also called H:KT TRV & L:LP S52E
B7: Fab VH5-51_IGHD5-18*01>3_IGHJ4*01 G100K/G104T G24T/S28R/G35V & V3-4_IGLJ1*01 V91L/S96P S52T (Fab, V domains shown)
VH: B1 VH
VL: B1 VL with S52T
notes: Fab expressed in E. coli; heavy chain vector adds CH1 with His6 and Flag tags, light chain vector adds lambda CL; also called H:KT TRV & L:LP S52T
B8: Fab VH5-51_IGHD5-18*01>3_IGHJ4*01 G100K/G104T G24T/S28R/G35V & V3-4_IGLJ1*01 V91L/S96P T53E (Fab, V domains shown)
VH: B1 VH
VL: B1 VL with T53E
notes: Fab expressed in E. coli; heavy chain vector adds CH1 with His6 and Flag tags, light chain vector adds lambda CL; also called H:KT TRV & L:LP T53E
B9: Fab VH5-51_IGHD5-18*01>3_IGHJ4*01 G100K/G104T G24T/S28R/G35V & V3-4_IGLJ1*01 V91L/S96P T53D (Fab, V domains shown)
VH: B1 VH
VL: B1 VL with T53D
notes: Fab expressed in E. coli; heavy chain vector adds CH1 with His6 and Flag tags, light chain vector adds lambda CL; also called H:KT TRV & L:LP T53D
B10: Fab VH5-51_IGHD5-18*01>3_IGHJ4*01 G100K/G104T G24T/S28R/G35V & V3-4_IGLJ1*01 V91L/S96P S52P (Fab, V domains shown)
VH: B1 VH
VL: B1 VL with S52P
notes: Fab expressed in E. coli; heavy chain vector adds CH1 with His6 and Flag tags, light chain vector adds lambda CL; also called H:KT TRV & L:LP S52P
B11: Fab VH5-51_IGHD5-18*01>3_IGHJ4*01 G100K/G104T G24T/S28R/G35V & V3-4_IGLJ1*01 V91L/S96P S52N (Fab, V domains shown)
VH: B1 VH
VL: B1 VL with S52N
notes: Fab expressed in E. coli; heavy chain vector adds CH1 with His6 and Flag tags, light chain vector adds lambda CL; also called H:KT TRV & L:LP S52N
B12: Fab VH5-51_IGHD5-18*01>3_IGHJ4*01 G100K/G104T G24T/S28R/G35V & V3-4_IGLJ1*01 V91L/S96P S52G (Fab, V domains shown)
VH: B1 VH
VL: B1 VL with S52G
notes: Fab expressed in E. coli; heavy chain vector adds CH1 with His6 and Flag tags, light chain vector adds lambda CL; also called H:KT TRV & L:LP S52G
B13: Fab VH5-51_IGHD5-18*01>3_IGHJ4*01 G100K/G104T G24T/S28R/G35V & V3-4_IGLJ1*01 V91L/S96P S52K (Fab, V domains shown)
VH: B1 VH
VL: B1 VL with S52K
notes: Fab expressed in E. coli; heavy chain vector adds CH1 with His6 and Flag tags, light chain vector adds lambda CL; also called H:KT TRV & L:LP S52K
B14: Fab VH5-51_IGHD5-18*01>3_IGHJ4*01 G100K/G104T G24T/S28R/G35V & V3-4_IGLJ1*01 V91L/S96P S52H (Fab, V domains shown)
VH: B1 VH
VL: B1 VL with S52H
notes: Fab expressed in E. coli; heavy chain vector adds CH1 with His6 and Flag tags, light chain vector adds lambda CL; also called H:KT TRV & L:LP S52H
B15: Fab VH5-51_IGHD5-18*01>3_IGHJ4*01 G100K/G104T G24T/S28R/G35V & V3-4_IGLJ1*01 V91L/S96P S52V (Fab, V domains shown)
VH: B1 VH
VL: B1 VL with S52V
notes: Fab expressed in E. coli; heavy chain vector adds CH1 with His6 and Flag tags, light chain vector adds lambda CL; also called H:KT TRV & L:LP S52V
B16: Fab VH5-51_IGHD5-18*01>3_IGHJ4*01 G100K/G104T G24T/S28R/G35V & V3-4_IGLJ1*01 V91L/S96P S52I (Fab, V domains shown)
VH: B1 VH
VL: B1 VL with S52I
notes: Fab expressed in E. coli; heavy chain vector adds CH1 with His6 and Flag tags, light chain vector adds lambda CL; also called H:KT TRV & L:LP S52I
B17: Fab VH5-51_IGHD5-18*01>3_IGHJ4*01 G100K/G104T G24T/S28R/G35V & V3-4_IGLJ1*01 V91L/S96P S52Q (Fab, V domains shown)
VH: B1 VH
VL: B1 VL with S52Q
notes: Fab expressed in E. coli; heavy chain vector adds CH1 with His6 and Flag tags, light chain vector adds lambda CL; also called H:KT TRV & L:LP S52Q
B18: Fab VH5-51_IGHD5-18*01>3_IGHJ4*01 G100K/G104T G24T/S28R/G35V & V3-4_IGLJ1*01 V91L/S96P S52Y (Fab, V domains shown)
VH: B1 VH
VL: B1 VL with S52Y
notes: Fab expressed in E. coli; heavy chain vector adds CH1 with His6 and Flag tags, light chain vector adds lambda CL; also called H:KT TRV & L:LP S52Y
B19: Fab VH5-51_IGHD5-18*01>3_IGHJ4*01 G100K/G104T G24T/S28R/G35V & V3-4_IGLJ1*01 V91L/S96P S52L (Fab, V domains shown)
VH: B1 VH
VL: B1 VL with S52L
notes: Fab expressed in E. coli; heavy chain vector adds CH1 with His6 and Flag tags, light chain vector adds lambda CL; also called H:KT TRV & L:LP S52L
B20: Fab VH5-51_IGHD5-18*01>3_IGHJ4*01 G100K/G104T G24T/S28R/G35V & V3-4_IGLJ1*01 V91L/S96P T53H (Fab, V domains shown)
VH: B1 VH
VL: B1 VL with T53H
notes: Fab expressed in E. coli; heavy chain vector adds CH1 with His6 and Flag tags, light chain vector adds lambda CL; also called H:KT TRV & L:LP T53H
B21: Fab VH5-51_IGHD5-18*01>3_IGHJ4*01 G100K/G104T G24T/S28R/G35V & V3-4_IGLJ1*01 V91L/S96P T53F (Fab, V domains shown)
VH: B1 VH
VL: B1 VL with T53F
notes: Fab expressed in E. coli; heavy chain vector adds CH1 with His6 and Flag tags, light chain vector adds lambda CL; also called H:KT TRV & L:LP T53F
B22: Fab VH5-51_IGHD5-18*01>3_IGHJ4*01 G100K/G104T G24T/S28R/G35V (H:KT TRV) & V3-4_IGLJ1*01 L24A (Fab, V domains shown)
VH: B1 VH
VL: B1 VL with L24A, L91V, P96S
notes: Fab; expressed in E. coli with CH1 (Plasmid A, His6 and Flag tags) and lambda CL (Plasmid E); also called H:KT TRV & L24A

Target: T1, Recombinant Human DLL4 (delta-like protein 4) (human, UniProt Q9NR61 27-524)
T1 construct: also called rHuman DLL4; Delta-like 4
Test: ELISA, DLL4 coated on plate, Fab at 100 nM

First: B1
Second: B2
The “ELISA Signal-blank (100 nM Fab)” value of the first is higher: 0.39 for the first, 0.33 for the second.

Going from B3 to B4, the “ELISA Signal-blank (100 nM Fab)” value falls from 0.46 to 0.39.

First: B5
Second: B6
The “ELISA Signal-blank (100 nM Fab)” value of the first is lower: 0.29 for the first, 0.38 for the second.

Going from B7 to B8, the “ELISA Signal-blank (100 nM Fab)” value falls from 0.34 to 0.09.

Going from B9 to B10, the “ELISA Signal-blank (100 nM Fab)” value rises from 0.16 to 0.32.

Going from B11 to B12, the “ELISA Signal-blank (100 nM Fab)” value rises from 0.45 to 0.53.

Compared with B13, B14 is higher in “ELISA Signal-blank (100 nM Fab)” value: 0.32 for the first, 0.44 for the second.

First: B15
Second: B16
The “ELISA Signal-blank (100 nM Fab)” value of the first is higher: 0.44 for the first, 0.42 for the second.

Going from B17 to B18, the “ELISA Signal-blank (100 nM Fab)” value rises from 0.39 to 0.41.

Compared with B19, B20 is lower in “ELISA Signal-blank (100 nM Fab)” value: 0.4 for the first, 0.14 for the second.

For B21, the “ELISA Signal-blank (100 nM Fab)” value was 0.15.

Target: T2, Recombinant Human DLL4 (human, UniProt Q9NR61 27-524)
T2 construct: also called delta-like protein 4; rHuman DLL4
Test: ELISA, DLL4 coated on plate, Fab at 100 nM, absorbance at 450 nm minus blank

For B22, the “ELISA Signal-blank (100 nM Fab)” value was 0.244.

From patent US20120316071A1 (published 2012)
